The values that follow come from paper PMC3001473 (PLoS ONE, 2010).

The test has as its target LcrV (V antigen) of Yersinia pestis (Yersinia pestis, UniProt P0C7U7 1-326). As to the kind of experiment: SPR; Biacore 3000; […]; HBS-P pH 7.4; […]. Conditions: both partners purified.

Usually Kd stands for the equilibrium constant for the complex coming apart. Low readings indicate higher affinity, high ones lower affinity.

LcrV (V antigen) of Yersinia pestis, sequence (P0C7U7 whole entry): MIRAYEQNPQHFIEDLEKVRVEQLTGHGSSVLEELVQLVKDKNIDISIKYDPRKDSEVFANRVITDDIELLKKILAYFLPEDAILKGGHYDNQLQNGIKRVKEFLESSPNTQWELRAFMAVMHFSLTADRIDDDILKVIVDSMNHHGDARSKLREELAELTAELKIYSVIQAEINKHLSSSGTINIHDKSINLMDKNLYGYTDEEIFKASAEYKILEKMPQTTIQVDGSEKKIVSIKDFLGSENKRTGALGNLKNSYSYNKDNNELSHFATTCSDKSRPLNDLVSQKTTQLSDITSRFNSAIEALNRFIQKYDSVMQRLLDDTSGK

B1: wild-type human interferon-gamma (ligand, UniProt P01579 24-166, looked up)
chain: QDPYVKEAENLKKYFNAGHSDVADNGTLFLGILKNWKEESDRKIMQSQIVSFYFKLFKNFKDDQSIQKSVETIKEDMNVKFFNSNKKKRDDFEKLTNYSVTDLNVQRKAIHELIQVMAELSPAAKTGKRKRSQMLFRGRRASQ
notes: also called IFNγ; IFNγwt
Consider B1, for which the Kd is 32 nM.
